This is an account of results in publication PMC5643538, “Direct visualization of critical hydrogen atoms in a pyridoxal 5′-phosphate enzyme” (Nature Communications, 2017).

The data set concerns the molecule itself. In words: crystal structure; joint neutron (2.2 Å) and X-ray (2.0 Å) structure at room temperature, pH 7.5, crystal soaked with 300 mM alpha-methyl-DL-aspartate; homodimer in one asymmetric unit.

B1: recombinant porcine cytosolic aspartate aminotransferase (enzyme)
chain: MAPPSVFAEVPQAQPVLVFKLIADFREDPDPRKVNLGVGAYRTDDCQPWVLPVVRKVEQRIANDSSLNHEYLPILGLAEFRTCASRLALGDDSPALQEKRVGGVQSLGGTGALRIGAEFLARWYNGTNNKDTPVYVSSPTWENHNGVFTTAGFKDIRSYRYWDTEKRGLDLQGFLSDLENAPEFSIFVLHACAHNPTGTDPTPEQWKQIASVMKRRFLFPFFDSAYQGFASGNLEKDAWAIRYFVSEGFELFCAQSFSKNFGLYNERVGNLTVVAKEPDSILRVLSQMEKIVRVTWSNPPAQGARIVARTLSDPELFHEWTGNVKTMADRILSMRSELRARLEALKTPGTWNHITDQIGMFSFTGLNPKQVEYLINEKHIYLLPSGRINMCGLTTKNLDYVATSIHEAVTKIQ
modifications: pyridoxal 5'-phosphate covalently linked to K258 (internal aldimine; chain B at pH 7.5, both chains at pH 4.0); in chain A at pH 7.5 PLP is linked to alpha-methylaspartate (external aldimine) and K258 is free; protein deuterated
notes: aspartate aminotransferase, cytosolic, pig; the construct and its tag are not described here; also called AAT; source: E. coli T7 Express LacIQ, deuterated (minimal medium with 100% D2O), purified (Ni-NTA)
As to B1, the “stoichiometry N” value stood at 2.
